Drawing on article PMC7948415, this text covers IC50 of inhibition of AP-mediated hemolysis of rabbit erythrocytes, properdin-depleted serum against normal human serum for one molecule.

For this test, the target named is alternative C3 convertase, C3bBb (human) (UniProt P01024).

B1: SG7.AF (natural protein)
chain: ARKHVQELLKTFRRIDFDETRKSVYLQSAKFGVQSQLREPLTKKVLNYWDDVKLSKTCLDRMVTKVNDVKETFYAGFSYACESHNQYSVDCLEAAKPSYLTALGEIRGETEKCLTTRLK
B1 had an IC50 of inhibition of AP-mediated hemolysis of rabbit erythrocytes, properdin-depleted serum against normal human serum of 6 fold.
